According to patent US20210179666A1 (REGENTS OF THE UNIVERSITY OF MINNESOTA, published 2021):
Like-named read-outs stand apart in the source and are kept apart here. Square brackets hold non-standard residues; d marks the D form.

B1: ZMK 2-82 (peptide)
peptide: cyclo(PRFFNVF[dP])
notes: Ala115Val SNP in the Asn scaffold; also called c[Pro-Arg-Phe-Phe-Asn-Val-Phe-DPro]
B2: ZMK 3-18 (peptide)
peptide: cyclo(PCFFNAF[dP])
notes: Arg111Cys SNP in the Asn scaffold; also called c[Pro-Cys-Phe-Phe-Asn-Ala-Phe-DPro]

Columns and labels:
[1] = biological target: T1, human melanocortin 4 receptor (human, UniProt P32245 1-332); experiment: cell-based or functional assay
T1 sequence (P32245 whole entry): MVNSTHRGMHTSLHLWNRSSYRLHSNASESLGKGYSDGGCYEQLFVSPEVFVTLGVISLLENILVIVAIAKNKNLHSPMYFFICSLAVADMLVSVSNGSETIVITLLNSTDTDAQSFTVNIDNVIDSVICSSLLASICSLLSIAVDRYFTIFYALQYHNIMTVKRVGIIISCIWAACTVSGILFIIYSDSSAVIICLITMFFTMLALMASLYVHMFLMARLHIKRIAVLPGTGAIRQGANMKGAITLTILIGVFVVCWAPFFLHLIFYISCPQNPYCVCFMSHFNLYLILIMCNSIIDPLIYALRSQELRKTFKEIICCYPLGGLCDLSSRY

[2] = biological target: T2, mouse melanocortin 1 receptor (mouse, UniProt Q01727 1-315); experiment: cell-based or functional assay
T2 sequence (Q01727 whole entry): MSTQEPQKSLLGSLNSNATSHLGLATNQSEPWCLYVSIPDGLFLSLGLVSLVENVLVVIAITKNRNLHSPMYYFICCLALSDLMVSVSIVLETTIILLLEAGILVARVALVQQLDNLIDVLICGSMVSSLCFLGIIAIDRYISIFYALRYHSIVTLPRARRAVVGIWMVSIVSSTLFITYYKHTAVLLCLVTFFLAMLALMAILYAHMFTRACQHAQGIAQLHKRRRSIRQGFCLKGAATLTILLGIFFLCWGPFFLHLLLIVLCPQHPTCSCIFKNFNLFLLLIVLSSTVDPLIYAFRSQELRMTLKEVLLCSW

[3] = biological target: T3, mouse melanocortin 3 receptor (mouse, UniProt P33033 1-323); experiment: cell-based or functional assay
T3 sequence (P33033 whole entry): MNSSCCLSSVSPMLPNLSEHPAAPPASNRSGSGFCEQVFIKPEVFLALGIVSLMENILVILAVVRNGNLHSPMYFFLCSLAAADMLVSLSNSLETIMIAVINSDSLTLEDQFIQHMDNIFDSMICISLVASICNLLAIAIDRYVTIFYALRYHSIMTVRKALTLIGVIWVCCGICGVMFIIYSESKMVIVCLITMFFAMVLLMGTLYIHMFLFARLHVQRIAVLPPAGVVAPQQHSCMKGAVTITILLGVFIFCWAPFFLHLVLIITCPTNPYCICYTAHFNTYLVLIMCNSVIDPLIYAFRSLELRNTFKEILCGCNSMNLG

[4] = biological target: T4, mouse melanocortin 4 receptor (mouse, UniProt P56450 1-332); experiment: cell-based or functional assay
T4 sequence (P56450 whole entry): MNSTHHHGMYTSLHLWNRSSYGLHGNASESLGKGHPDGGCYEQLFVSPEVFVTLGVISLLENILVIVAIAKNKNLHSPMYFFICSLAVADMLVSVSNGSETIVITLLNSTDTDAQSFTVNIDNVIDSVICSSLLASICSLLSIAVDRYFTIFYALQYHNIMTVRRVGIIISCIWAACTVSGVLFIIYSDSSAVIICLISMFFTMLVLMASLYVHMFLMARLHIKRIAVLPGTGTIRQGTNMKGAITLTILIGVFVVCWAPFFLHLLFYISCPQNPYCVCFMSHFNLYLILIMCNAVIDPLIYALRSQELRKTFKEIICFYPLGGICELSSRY

[5] = biological target: T5, mouse melanocortin 5 receptor (mouse, UniProt P41149 1-325); experiment: cell-based or functional assay
T5 sequence (P41149 whole entry): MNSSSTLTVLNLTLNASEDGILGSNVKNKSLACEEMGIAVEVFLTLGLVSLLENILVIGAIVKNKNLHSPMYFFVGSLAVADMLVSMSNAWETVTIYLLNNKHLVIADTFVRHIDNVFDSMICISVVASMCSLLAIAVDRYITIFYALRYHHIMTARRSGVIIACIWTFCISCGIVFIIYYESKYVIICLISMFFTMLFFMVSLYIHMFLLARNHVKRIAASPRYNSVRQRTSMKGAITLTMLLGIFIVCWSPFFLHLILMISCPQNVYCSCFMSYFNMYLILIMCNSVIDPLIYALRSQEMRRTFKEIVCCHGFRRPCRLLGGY

[6] = biological target: T2, mouse melanocortin 1 receptor; experiment: 125I-NDP-MSH competition, HEK293 cells
[7] = biological target: T3, mouse melanocortin 3 receptor; experiment: 125I-NDP-MSH competition, HEK293 cells
[8] = biological target: T4, mouse melanocortin 4 receptor; experiment: 125I-NDP-MSH competition, HEK293 cells
[9] = biological target: T5, mouse melanocortin 5 receptor; experiment: 125I-NDP-MSH competition, HEK293 cells
[10] = biological target: T1, human melanocortin 4 receptor; experiment: 125I-NDP-MSH competition, HEK293 cells
[11] = biological target: T2, mouse melanocortin 1 receptor; experiment: 125I-NDP-MSH competition; fold vs SEQ ID NO: 1 control
[12] = biological target: T3, mouse melanocortin 3 receptor; experiment: as above
[13] = biological target: T4, mouse melanocortin 4 receptor; experiment: as above
[14] = biological target: T5, mouse melanocortin 5 receptor; experiment: as above
[15] = biological target: T1, human melanocortin 4 receptor; experiment: as above
[16] = biological target: T3, mouse melanocortin 3 receptor; experiment: cell-based or functional assay; remark: listed apart in the source
[17] = biological target: T4, mouse melanocortin 4 receptor; experiment: cell-based or functional assay; remark: listed apart in the source
[18] = biological target: T5, mouse melanocortin 5 receptor; experiment: cell-based or functional assay; remark: listed apart in the source

Binder | pA2 (Schild analysis, agonist NDP-MSH, cAMP) [1] | IC50 [6] [µM] | IC50 [8] [nM] | IC50 [10] [µM] | Fold Diff [11] [fold] | Fold Diff [13] [fold] | Fold Diff [15] [fold] | further results
B1 | 7.8 | 15 | 38 | 0.25 | 2 | 2 | 3 | percent maximal stimulatory response at 100 µM (cAMP) [2]: 23%; EC50 (cAMP agonist) [3]: > 100 µM; pA2 (Schild analysis, agonist NDP-MSH, cAMP) [3]: 5.9; pA2 (Schild analysis, agonist NDP-MSH, cAMP) [4]: 7.2; percent maximal stimulatory response at 100 µM (cAMP) [4]: 16%; EC50 (cAMP agonist) [5]: > 100 µM; pA2 (Schild analysis, agonist NDP-MSH, cAMP) [5]: 6.1; IC50 [7]: 53 µM; IC50 [9]: 29 µM; Fold Diff [12]: 3 fold; Fold Diff [14]: 2 fold
B2 | 5.8 | 24.6 | 1900 | 19.3 | 3 | 90 | 300 | pA2 (Schild analysis, agonist NDP-MSH, cAMP) [16]: < 5; pA2 (Schild analysis, agonist NDP-MSH, cAMP) [17]: 5.9; pA2 (Schild analysis, agonist NDP-MSH, cAMP) [18]: < 5
